# Laboratory results published in patent US20200262877A1, “ION CHANNEL-BINDING PEPTIDES AND METHODS OF USE THEREOF” (priority 2017, published 2020).
# What was measured:
# α3β4 = molecular target: T1, α3β4 (Homo sapiens, UniProt P30926+P32297); assay: Ion channel panel (IonWorks Barracuda): α3β4; format: cell-based; conditions: 100% = no change, <100% = inhibition
# T1 construct: host or cells: HEK293 or CHO
# Summary of the method: (§1)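 Peptides were tested in duplicate at final 20 μM and 200 nM, with concentration set by amino acid analysis, in HEPES-buffered saline. They were applied for at least 5 min to HEK293 or CHO cells transfected with each channel. Currents were expressed as % inhibition, 1-(Ipeptide/Icontrol)×100, or % activation, Ipeptide/Icontrol×100, against a channel-matched reference compound.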
# α4β2 = molecular target: T2, α4β2 (Homo sapiens, UniProt P17787+P43681); assay: Ion channel panel (IonWorks Barracuda): α4β2; format: cell-based; conditions: 100% = no change, <100% = inhibition
# T2 construct: host or cells: HEK293 or CHO
# Summary of the method: as §1
# NR2B = molecular target: T3, NR2B (Homo sapiens, UniProt Q13224); assay: Ion channel panel (IonWorks Barracuda): NR2B; format: cell-based; conditions: 100% = no change, <100% = inhibition
# T3 construct: host or cells: HEK293 or CHO
# Summary of the method: as §1
# TRPV1 = molecular target: T4, TRPV1 (Homo sapiens, UniProt Q8NER1); assay: Ion channel panel (IonWorks Barracuda): TRPV1; format: cell-based; conditions: 100% = no change, <100% = inhibition
# T4 construct: host or cells: HEK293 or CHO
# Summary of the method: as §1
# Nav1.5 = Nav1.5 (Homo sapiens, UniProt Q14524); assay: in vitro; conditions: 100% = no change; for Activity of Nav1.5 with peptide, expressed as a percentage of the reference compound: peptide at 0.2 μM; for Activity of Nav1.5 with peptide (percentage of the reference compound): peptide at 20 μM
# Summary of the method: as §1
# hERG = hERG (Homo sapiens, UniProt Q12809); assay: in vitro; conditions: 100% = no change, <100% = inhibition
# Summary of the method: as §1
# Kv2.1 = molecular target: T5, Kv2.1 (Homo sapiens, UniProt Q14721); assay: cell-based; conditions: 100% = no change, <100% = inhibition
# T5 construct: host or cells: HEK293 or CHO
# Summary of the method: as §1
# Cav2.2 = molecular target: T6, Cav2.2 (Homo sapiens, UniProt Q00975); assay: cell-based; conditions: 100% = no change, <100% = inhibition
# T6 construct: host or cells: HEK293 or CHO
# Summary of the method: as §1
# Cav2.1 = molecular target: T7, Cav2.1 (Homo sapiens, UniProt O00555); assay: cell-based; conditions: 100% = no change, <100% = inhibition
# T7 construct: host or cells: HEK293 or CHO
# Summary of the method: as §1
# 5HT3a = molecular target: T8, 5HT3a (Homo sapiens, UniProt P46098); assay: Ion channel panel (IonWorks Barracuda): 5HT3a; format: cell-based
# T8 construct: host or cells: HEK293 or CHO
# T8 sequence (P46098 whole entry, looked up): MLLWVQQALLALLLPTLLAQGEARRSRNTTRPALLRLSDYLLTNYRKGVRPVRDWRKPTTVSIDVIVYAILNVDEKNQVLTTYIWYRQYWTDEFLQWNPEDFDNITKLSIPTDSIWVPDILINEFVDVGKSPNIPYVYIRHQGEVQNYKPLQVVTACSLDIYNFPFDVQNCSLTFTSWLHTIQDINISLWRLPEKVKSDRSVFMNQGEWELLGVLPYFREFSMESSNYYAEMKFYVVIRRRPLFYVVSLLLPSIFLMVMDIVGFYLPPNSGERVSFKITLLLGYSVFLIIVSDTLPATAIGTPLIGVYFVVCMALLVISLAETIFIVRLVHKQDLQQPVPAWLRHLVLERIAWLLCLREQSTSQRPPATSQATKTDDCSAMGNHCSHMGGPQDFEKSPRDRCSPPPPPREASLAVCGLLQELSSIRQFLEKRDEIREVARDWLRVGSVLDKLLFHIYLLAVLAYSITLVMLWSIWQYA
# Summary of the method: as §1
# Kv1.3 = molecular target: T9, Kv1.3 (Homo sapiens, UniProt P22001); assay: cell-based; format: cell-based; conditions: 100% = no change, <100% = inhibition
# T9 construct: host or cells: HEK293 or CHO
# Summary of the method: as §1
# Kv1.2 = molecular target: T10, Kv1.2 (Homo sapiens, UniProt P16389); assay: cell-based; format: cell-based; conditions: 100% = no change, <100% = inhibition
# T10 construct: host or cells: HEK293 or CHO
# Summary of the method: as §1
# Kv1.1 = molecular target: T11, Kv1.1 (Homo sapiens, UniProt Q09470); assay: cell-based; format: cell-based; conditions: 100% = no change, <100% = inhibition
# T11 construct: host or cells: HEK293 or CHO
# Summary of the method: as §1
# Kir2.1 = molecular target: T12, Kir2.1 (Homo sapiens, UniProt P63252); assay: Ion channel panel (IonWorks Barracuda): Kir2.1; format: cell-based; conditions: 100% = no change, <100% = inhibition
# T12 construct: host or cells: HEK293 or CHO
# Summary of the method: as §1
# GABA = assay: Ion channel panel (IonWorks Barracuda): GABA; format: cell-based; conditions: 100% = no change, <100% = inhibition
# Summary of the method: as §1
# TRPA1 = molecular target: T13, TRPA1 (Homo sapiens, UniProt O75762); assay: Ion channel panel (IonWorks Barracuda): TRPA1; format: cell-based; conditions: 100% = no change, <100% = inhibition
# T13 construct: host or cells: HEK293 or CHO
# Summary of the method: as §1
# Nav1.7 = molecular target: T14, Nav1.7 (Homo sapiens, UniProt Q15858); assay: cell-based; format: cell-based; conditions: 100% = no change; for Activity of Nav1.7 with peptide, expressed as a percentage of the reference compound: peptide at 0.2 μM; for Activity of Nav1.7 with peptide (percentage of the reference compound): peptide at 20 μM
# T14 construct: host or cells: HEK293 or CHO
# NR2A = molecular target: T15, NR2A (Homo sapiens, UniProt Q12879); assay: Ion channel panel (IonWorks Barracuda): NR2A; format: cell-based; conditions: 100% = no change, <100% = inhibition
# T15 construct: host or cells: HEK293 or CHO
# Summary of the method: as §1
# [1] = first of two Nav1.5 columns (probably TP1)
# [2] = second of two Nav1.5 columns (probably TP2)
# [3] = first of two Nav1.7 columns (probably TP1)
# [4] = second of two Nav1.7 columns (probably TP2)
# Nav1.5, sequence (Q14524 whole entry): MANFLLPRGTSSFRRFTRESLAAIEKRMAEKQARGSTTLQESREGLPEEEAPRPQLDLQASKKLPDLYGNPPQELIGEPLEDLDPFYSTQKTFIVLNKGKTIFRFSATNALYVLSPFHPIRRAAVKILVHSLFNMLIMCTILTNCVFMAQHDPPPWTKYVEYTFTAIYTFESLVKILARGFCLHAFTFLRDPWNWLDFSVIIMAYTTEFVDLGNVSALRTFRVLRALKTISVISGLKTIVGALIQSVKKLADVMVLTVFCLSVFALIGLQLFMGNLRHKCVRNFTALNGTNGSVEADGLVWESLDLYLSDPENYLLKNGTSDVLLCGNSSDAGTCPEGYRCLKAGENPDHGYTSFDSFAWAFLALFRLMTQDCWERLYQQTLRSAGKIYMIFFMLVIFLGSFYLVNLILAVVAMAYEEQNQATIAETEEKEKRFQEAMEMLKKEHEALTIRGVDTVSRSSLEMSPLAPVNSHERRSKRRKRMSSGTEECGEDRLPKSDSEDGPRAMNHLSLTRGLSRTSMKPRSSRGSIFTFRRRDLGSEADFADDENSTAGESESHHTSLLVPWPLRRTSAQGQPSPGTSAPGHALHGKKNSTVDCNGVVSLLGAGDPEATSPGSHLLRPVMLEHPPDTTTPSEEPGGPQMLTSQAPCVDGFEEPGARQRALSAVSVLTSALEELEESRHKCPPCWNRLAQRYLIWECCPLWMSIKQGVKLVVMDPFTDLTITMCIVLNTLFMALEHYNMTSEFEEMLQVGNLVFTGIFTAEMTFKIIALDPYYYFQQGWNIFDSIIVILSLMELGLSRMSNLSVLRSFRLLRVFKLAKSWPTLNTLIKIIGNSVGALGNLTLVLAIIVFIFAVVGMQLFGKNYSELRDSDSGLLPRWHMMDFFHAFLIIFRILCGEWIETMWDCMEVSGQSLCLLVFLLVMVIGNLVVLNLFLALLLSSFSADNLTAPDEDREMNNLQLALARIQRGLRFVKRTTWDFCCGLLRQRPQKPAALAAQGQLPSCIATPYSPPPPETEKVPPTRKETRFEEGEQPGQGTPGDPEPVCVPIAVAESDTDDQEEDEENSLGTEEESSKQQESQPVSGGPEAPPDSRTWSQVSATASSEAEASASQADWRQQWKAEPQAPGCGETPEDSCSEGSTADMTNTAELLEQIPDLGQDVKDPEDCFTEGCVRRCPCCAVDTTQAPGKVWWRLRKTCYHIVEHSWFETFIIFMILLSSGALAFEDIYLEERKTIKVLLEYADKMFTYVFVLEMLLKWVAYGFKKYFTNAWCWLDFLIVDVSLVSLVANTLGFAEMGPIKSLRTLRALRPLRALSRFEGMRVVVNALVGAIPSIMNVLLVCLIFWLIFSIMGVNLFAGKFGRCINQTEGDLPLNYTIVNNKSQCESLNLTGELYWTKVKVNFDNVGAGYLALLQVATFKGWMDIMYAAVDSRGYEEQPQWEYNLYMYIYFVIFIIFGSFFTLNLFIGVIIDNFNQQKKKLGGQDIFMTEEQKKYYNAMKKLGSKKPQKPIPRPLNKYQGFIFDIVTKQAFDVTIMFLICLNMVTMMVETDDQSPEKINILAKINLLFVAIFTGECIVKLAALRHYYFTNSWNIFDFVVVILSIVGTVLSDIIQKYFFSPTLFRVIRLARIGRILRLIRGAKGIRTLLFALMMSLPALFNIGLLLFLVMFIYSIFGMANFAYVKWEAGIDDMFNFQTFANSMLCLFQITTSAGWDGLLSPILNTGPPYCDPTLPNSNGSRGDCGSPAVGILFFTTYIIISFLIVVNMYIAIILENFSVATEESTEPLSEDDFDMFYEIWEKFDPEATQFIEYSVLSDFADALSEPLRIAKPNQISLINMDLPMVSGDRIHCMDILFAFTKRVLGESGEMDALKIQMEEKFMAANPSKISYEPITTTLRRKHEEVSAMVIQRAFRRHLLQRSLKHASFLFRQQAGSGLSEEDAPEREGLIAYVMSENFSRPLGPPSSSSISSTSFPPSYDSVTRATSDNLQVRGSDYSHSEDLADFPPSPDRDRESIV
# T14 sequence (Q15858 whole entry): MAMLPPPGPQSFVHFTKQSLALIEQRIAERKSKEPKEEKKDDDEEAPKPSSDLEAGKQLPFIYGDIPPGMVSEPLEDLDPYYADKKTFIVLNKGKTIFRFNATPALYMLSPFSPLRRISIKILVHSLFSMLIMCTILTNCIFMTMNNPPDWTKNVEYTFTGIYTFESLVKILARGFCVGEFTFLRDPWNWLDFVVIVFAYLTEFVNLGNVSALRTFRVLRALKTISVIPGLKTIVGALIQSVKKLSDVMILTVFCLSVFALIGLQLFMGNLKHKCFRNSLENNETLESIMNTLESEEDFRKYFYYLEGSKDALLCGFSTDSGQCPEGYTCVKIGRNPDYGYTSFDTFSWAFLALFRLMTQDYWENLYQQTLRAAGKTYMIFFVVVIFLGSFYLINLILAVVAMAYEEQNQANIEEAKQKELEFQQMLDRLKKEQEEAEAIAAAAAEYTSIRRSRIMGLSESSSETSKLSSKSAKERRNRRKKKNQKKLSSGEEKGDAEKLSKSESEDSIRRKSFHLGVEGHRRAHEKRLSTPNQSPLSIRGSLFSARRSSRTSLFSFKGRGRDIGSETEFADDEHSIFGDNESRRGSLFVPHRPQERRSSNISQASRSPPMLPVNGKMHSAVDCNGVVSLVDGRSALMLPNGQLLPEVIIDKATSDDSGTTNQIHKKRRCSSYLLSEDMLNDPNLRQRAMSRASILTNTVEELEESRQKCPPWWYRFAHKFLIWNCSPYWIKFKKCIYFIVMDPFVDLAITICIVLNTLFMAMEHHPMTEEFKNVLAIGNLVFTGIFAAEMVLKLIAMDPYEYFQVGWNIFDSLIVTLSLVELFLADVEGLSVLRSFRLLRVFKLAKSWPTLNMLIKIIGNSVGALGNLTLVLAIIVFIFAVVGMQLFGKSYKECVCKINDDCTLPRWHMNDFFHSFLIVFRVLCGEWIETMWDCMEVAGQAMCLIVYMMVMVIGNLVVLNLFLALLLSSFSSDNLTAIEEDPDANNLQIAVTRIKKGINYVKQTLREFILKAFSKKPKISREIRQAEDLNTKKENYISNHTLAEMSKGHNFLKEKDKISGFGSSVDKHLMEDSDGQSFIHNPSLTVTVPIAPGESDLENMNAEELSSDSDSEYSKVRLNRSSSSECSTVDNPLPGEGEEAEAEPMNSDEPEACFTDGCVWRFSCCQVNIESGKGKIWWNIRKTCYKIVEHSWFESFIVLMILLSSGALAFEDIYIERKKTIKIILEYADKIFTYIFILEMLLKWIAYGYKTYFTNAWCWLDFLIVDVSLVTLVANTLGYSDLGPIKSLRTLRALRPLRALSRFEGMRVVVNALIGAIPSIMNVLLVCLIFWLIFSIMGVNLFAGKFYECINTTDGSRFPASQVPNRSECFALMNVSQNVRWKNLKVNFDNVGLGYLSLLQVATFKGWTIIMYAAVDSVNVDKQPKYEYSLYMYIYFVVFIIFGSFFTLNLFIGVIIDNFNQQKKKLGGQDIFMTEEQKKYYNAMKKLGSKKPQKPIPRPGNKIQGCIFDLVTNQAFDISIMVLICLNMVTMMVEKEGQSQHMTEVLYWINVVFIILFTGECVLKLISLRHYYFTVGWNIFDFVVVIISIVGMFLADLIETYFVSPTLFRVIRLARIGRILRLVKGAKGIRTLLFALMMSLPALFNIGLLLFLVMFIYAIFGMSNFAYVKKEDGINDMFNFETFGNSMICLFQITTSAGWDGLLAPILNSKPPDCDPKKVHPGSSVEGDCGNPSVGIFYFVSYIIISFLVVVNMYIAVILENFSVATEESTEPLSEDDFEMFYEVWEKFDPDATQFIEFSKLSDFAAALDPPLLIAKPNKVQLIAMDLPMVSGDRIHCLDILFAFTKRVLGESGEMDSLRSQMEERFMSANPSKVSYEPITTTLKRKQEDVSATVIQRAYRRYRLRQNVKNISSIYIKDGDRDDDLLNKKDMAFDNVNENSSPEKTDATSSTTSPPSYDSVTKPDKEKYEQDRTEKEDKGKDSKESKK
# T1 sequence (P30926 22-498): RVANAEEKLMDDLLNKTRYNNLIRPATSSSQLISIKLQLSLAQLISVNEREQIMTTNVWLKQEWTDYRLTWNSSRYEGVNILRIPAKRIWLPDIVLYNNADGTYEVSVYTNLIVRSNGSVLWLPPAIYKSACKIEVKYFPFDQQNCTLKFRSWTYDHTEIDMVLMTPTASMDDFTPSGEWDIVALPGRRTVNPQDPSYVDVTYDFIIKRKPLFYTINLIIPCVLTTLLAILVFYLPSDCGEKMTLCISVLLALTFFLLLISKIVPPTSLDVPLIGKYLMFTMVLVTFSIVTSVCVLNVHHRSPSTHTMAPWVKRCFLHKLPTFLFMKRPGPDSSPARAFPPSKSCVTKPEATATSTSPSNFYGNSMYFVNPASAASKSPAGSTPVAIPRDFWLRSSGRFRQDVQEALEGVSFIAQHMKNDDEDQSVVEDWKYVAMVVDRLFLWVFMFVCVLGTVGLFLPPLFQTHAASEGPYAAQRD
# T1 sequence (P32297 32-505): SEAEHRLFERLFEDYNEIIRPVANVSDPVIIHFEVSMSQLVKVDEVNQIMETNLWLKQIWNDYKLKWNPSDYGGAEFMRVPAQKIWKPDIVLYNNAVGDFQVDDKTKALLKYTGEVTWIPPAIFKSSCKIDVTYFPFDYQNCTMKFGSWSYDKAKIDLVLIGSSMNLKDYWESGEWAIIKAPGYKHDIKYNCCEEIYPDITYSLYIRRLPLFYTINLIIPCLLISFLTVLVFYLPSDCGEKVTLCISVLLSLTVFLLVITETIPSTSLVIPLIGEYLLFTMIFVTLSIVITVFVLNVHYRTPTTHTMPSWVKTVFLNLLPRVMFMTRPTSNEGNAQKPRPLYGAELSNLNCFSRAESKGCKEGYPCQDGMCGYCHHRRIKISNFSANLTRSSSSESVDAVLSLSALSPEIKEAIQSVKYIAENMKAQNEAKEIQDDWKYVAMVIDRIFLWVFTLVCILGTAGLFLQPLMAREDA
substance,measurement,setting,value
36 (GSAQEPVKGPVSTKPGSCPIILIRCAMLNPPNRCLKDTDCPGIKKCCEGSCGMACFVPQ) [compound 36],"Activity of a3b4 with peptide, expressed as a percentage of the reference compound",α3β4; peptide at 0.2 μM,95%
same,Activity of a3b4 with peptide (percentage of the reference compound),α3β4; peptide at 20 μM,87%
same,"Activity of a4b2 with peptide, expressed as a percentage of the reference compound",α4β2; peptide at 0.2 μM,62%
same,Activity of a4b2 with peptide (percentage of the reference compound),α4β2; peptide at 20 μM,57%
same,"Activity of NR2B with peptide, expressed as a percentage of the reference compound",NR2B; peptide at 0.2 μM,109%
same,Activity of NR2B with peptide (percentage of the reference compound),NR2B; peptide at 20 μM,96%
same,"Activity of TRPV1 with peptide, expressed as a percentage of the reference compound",TRPV1; peptide at 0.2 μM,103%
same,Activity of TRPV1 with peptide (percentage of the reference compound),TRPV1; peptide at 20 μM,69%
same,"Activity of Nav1.5 with peptide, expressed as a percentage of the reference compound",Nav1.5; [1],110%
same,"Activity of Nav1.5 with peptide, expressed as a percentage of the reference compound",Nav1.5; [2],109%
same,Activity of Nav1.5 with peptide (percentage of the reference compound),Nav1.5; [1],107%
same,Activity of Nav1.5 with peptide (percentage of the reference compound),Nav1.5; [2],112%
same,"Activity of hERG with peptide, expressed as a percentage of the reference compound",hERG; peptide at 0.2 μM,84%
same,Activity of hERG with peptide (percentage of the reference compound),hERG; peptide at 20 μM,65%
same,"Activity of Kv2.1 with peptide, expressed as a percentage of the reference compound",Kv2.1; peptide at 0.2 μM,104%
same,Activity of Kv2.1 with peptide (percentage of the reference compound),Kv2.1; peptide at 20 μM,92%
same,"Activity of Cav2.2 with peptide, expressed as a percentage of the reference compound",Cav2.2; peptide at 0.2 μM,114%
same,Activity of Cav2.2 with peptide (percentage of the reference compound),Cav2.2; peptide at 20 μM,87%
same,"Activity of Cav2.1 with peptide, expressed as a percentage of the reference compound",Cav2.1; peptide at 0.2 μM,96%
same,Activity of Cav2.1 with peptide (percentage of the reference compound),Cav2.1; peptide at 20 μM,102%
same,Activity of 5HT3a with peptide (percentage of the reference compound),5HT3a,83%
same,"Activity of 5HT3a with peptide, expressed as a percentage of the reference compound",5HT3a,81%
same,"Activity of Kv1.3 with peptide, expressed as a percentage of the reference compound",Kv1.3; peptide at 0.2 μM,96%
same,Activity of Kv1.3 with peptide (percentage of the reference compound),Kv1.3; peptide at 20 μM,93%
same,"Activity of Kv1.2 with peptide, expressed as a percentage of the reference compound",Kv1.2; peptide at 0.2 μM,91%
same,Activity of Kv1.2 with peptide (percentage of the reference compound),Kv1.2; peptide at 20 μM,87%
same,"Activity of Kv1.1 with peptide, expressed as a percentage of the reference compound",Kv1.1; peptide at 0.2 μM,82%
same,Activity of Kv1.1 with peptide (percentage of the reference compound),Kv1.1; peptide at 20 μM,101%
same,"Activity of Kir2.1 with peptide, expressed as a percentage of the reference compound",Kir2.1; peptide at 0.2 μM,108%
same,Activity of Kir2.1 with peptide (percentage of the reference compound),Kir2.1; peptide at 20 μM,91%
same,"Activity of GABA with peptide, expressed as a percentage of the reference compound",GABA; peptide at 0.2 μM,118%
same,Activity of GABA with peptide (percentage of the reference compound),GABA; peptide at 20 μM,106%
same,"Activity of TRPA1 with peptide, expressed as a percentage of the reference compound",TRPA1; peptide at 0.2 μM,106%
same,Activity of TRPA1 with peptide (percentage of the reference compound),TRPA1; peptide at 20 μM,92%
same,"Activity of Nav1.7 with peptide, expressed as a percentage of the reference compound",Nav1.7; [3],108%
same,"Activity of Nav1.7 with peptide, expressed as a percentage of the reference compound",Nav1.7; [4],118%
same,Activity of Nav1.7 with peptide (percentage of the reference compound),Nav1.7; [3],91%
same,Activity of Nav1.7 with peptide (percentage of the reference compound),Nav1.7; [4],71%
same,"Activity of NR2A with peptide, expressed as a percentage of the reference compound",NR2A; peptide at 0.2 μM,115%
same,Activity of NR2A with peptide (percentage of the reference compound),NR2A; peptide at 20 μM,103%
